The record followed here is IntAct's records for PubMed 22751141.

This test has as its target GATA3, P23771-2.

Chain of GATA3, P23771-2 (P23771 other isoform, or with tags, fused parts or gaps): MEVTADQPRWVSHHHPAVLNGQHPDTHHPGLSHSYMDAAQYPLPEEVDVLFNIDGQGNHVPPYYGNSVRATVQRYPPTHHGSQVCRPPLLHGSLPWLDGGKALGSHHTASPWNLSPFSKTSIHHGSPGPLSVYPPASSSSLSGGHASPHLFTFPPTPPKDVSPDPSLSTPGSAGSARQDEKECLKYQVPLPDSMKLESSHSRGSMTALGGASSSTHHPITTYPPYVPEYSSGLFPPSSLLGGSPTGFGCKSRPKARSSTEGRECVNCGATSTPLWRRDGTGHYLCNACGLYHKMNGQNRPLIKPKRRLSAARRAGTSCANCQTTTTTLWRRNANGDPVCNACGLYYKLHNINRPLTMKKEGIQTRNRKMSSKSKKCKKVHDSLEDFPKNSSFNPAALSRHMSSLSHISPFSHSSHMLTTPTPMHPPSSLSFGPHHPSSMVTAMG

Take “Transcription factor SOX-4 (Mus musculus), Q06831 F66A;M67A”: the “effect of a mutation on the interaction” value is on record as “decreasing interaction”.

As for “Transcription factor SOX-4 (Mus musculus), Q06831 R61A;P62A”, the “effect of a mutation on the interaction” value is given as “decreasing interaction”.
